Measured values reported in paper PMC2033796, “Mechanisms of acquired resistance to the quinazoline thymidylate synthase inhibitor ZD1694 (Tomudex) in one mouse and three human cell lines” (British Journal of Cancer, 1995).

Substrate: Nc1nc2c(c(=O)[nH]1)N1CN(c3ccc(C(=O)N[C@@H](CCC(=O)O)C(=O)O)cc3)CC1CN2
Assay: purified protein
Format: biochemical, Homo sapiens
Details: co-substrate dUMP; mixed diastereoisomers (6R,S)

B1: TS isolated from human ovarian CH1 cells (CH1 TS) (Homo sapiens) (protein)
chain: PVAGSELPRRPLPPAAQERDAEPRPPHGELQYLGQIQHILRCGVRKDDRTGTGTLSVFGMQARYSLRDEFPLLTTKRVFWKGVLEELLWFIKGSTNAKELSSKGVKIWDANGSRDFLDSLGFSTREEGDLGPVYGFQWRHFGAEYRDMESDYSGQGVDQLQRVIDTIKTNPDDRRIIMCAWNPRDLPLMALPPCHALCQFYVVNSELSCQLYQRSGDMGLGVPFNIASYALLTYMIAHITGLKPGDFIHTLGDAHIYLNHIEPLKIQLQREPRPFPKLRILRKVEKIDDFKAEDFQIEGYNPHPTIKMEMAV
notes: native enzyme partially purified from CH1 ovarian tumour cells (parental line), no tag
- Km: 24 ± 0.8 µM
